Literature values in PMC2683804.

What was measured:
[1] = target: amyloid-β 1-40 1-40 (Homo sapiens) (UniProt P05067)
[2] = target: amyloid-β 1-42 1-42 (Homo sapiens) (UniProt P05067)

- Kd [1]: 9.25 µM
- Kd [2]: 10.5 µM
Substance: human serum albumin (from UniProt P02768)
